Reference: patent US20180141972

What was measured:
[1] = target: ePDZ-b-ENLYFQ-OFP fusion protein
[2] = target: HIS-ePDZ-b-ENLYFQ-OFP fusion substrate protein
[3] = target: ePDZ-b-WELQ-OFP fusion substrate
[4] = target: T1, Spycatcher-WELQ-Tem1 fusion protein (Spycatcher followed by a SplB protease site with a P1' methionine and the lactamase Tem1), P62593
T1 chain: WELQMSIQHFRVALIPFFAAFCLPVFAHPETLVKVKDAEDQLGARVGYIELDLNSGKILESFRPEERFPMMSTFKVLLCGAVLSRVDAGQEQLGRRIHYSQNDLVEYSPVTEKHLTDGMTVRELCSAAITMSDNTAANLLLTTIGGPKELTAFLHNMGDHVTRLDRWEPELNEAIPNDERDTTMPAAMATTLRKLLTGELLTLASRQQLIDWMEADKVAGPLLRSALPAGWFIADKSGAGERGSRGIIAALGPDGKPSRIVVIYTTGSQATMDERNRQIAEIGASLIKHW

[5] = target: Spycatcher-WELQ-LSSmOrange fusion protein
[6] = target: HIS-ePDZ-b-WELQ-OFP fusion substrate protein

B1: wild-type TEV protease, untagged (protein)
chain: GESLFKGPRDYNPISSTICHLTNESDGHTTSLYGIGFGPFIITNKHLFRRNNGTLLVQSLHGVFKVKNTTTLQQHLIDGRDMIIIRMPKDFPPFPQKLKFREPQREERICLVTTNFQTKSMSSMVSDTSCTFPSSDGIFWKHWIQTKDGQCGSPLVSTRDGFIVGIHSASNFTNTNNYFTSVPKNFMELLTNQEAQQWVSGWRLNADSVLWGGHKVFMSKPEEPFQPVKEATQLMNELVYSQ
B1 was tested, and the “cleavage of the fusion substrate to native OFP (gel, FIG. 6A)” value [1] was “wild-type TEV protease did not show significant cleavage even after 24 hours incubation” and the “generation of native OFP over time (gel, FIG. 6A)” value [1] was “Native OFP (arrowed red) was rapidly generated through use of TEV-AP4 compared to endogenous TEV”.

B2: HIS-TEV (protein)
chain: GESLFKGPRDYNPISSTICHLTNESDGHTTSLYGIGFGPFIITNKHLFRRNNGTLLVQSLHGVFKVKNTTTLQQHLIDGRDMIIIRMPKDFPPFPQKLKFREPQREERICLVTTNFQTKSMSSMVSDTSCTFPSSDGIFWKHWIQTKDGQCGSPLVSTRDGFIVGIHSASNFTNTNNYFTSVPKNFMELLTNQEAQQWVSGWRLNADSVLWGGHKVFMSKPEEPFQPVKEATQLMNELVYSQ
For B2, the “yield of native OFP after on-column cleavage (gel, FIG. 8, lanes 6 and 15)” value [2] was “the yield of native OFP was significantly increased when histidine tagged TEV-AP4 was used compared to histidine tagged TEV”.

B3: SplB protease with shortened ARVC-pep tag (the least shortened of the 3 progressively shortened peptide tags) (protein)
chain: ENNVTKVKDTNIFPYTGVVAFKSATGFVVGKNTILTNKHVSKNYKVGDRITAHPNSDKGNGGIYSIKKIINYPGKEDVSVIQVEERAIERGPKGFNFNDNVTPFKYAAGAKAGERIKVIGYPHPYKNKYVLYESTGPVMSVEGSSIVYSAHTESGNSGSPVLNSNNELVGIHFASDVKNDDNRNAYGVYFTPEIKKFIAENIDK
In the case of B3, the “cleavage efficiency at high protease concentration (gel, FIG. 5, lanes 2-5)” value (shortened to “cleavage efficiency”) [3] is reported as “At high protease concentration, no variation was observed in cleavage efficiency” and the “cleavage to yield native OFP (gel, FIG. 5)” value (“cleavage to yield native OFP” for short) [3] is reported as “These tagged proteases all showed improved cleavage to yield native OFP (red arrow) compared to SplB protease tagged with a non-specific C-terminal peptide (SplB-CON) and commercial nontagged SplB protease (SplB-COM)”.

B4: Commercial SplB protease, non-tagged (protein)
chain: ENNVTKVKDTNIFPYTGVVAFKSATGFVVGKNTILTNKHVSKNYKVGDRITAHPNSDKGNGGIYSIKKIINYPGKEDVSVIQVEERAIERGPKGFNFNDNVTPFKYAAGAKAGERIKVIGYPHPYKNKYVLYESTGPVMSVEGSSIVYSAHTESGNSGSPVLNSNNELVGIHFASDVKNDDNRNAYGVYFTPEIKKFIAENIDK
In the case of B4, the “cleavage of the fusion protein to native Tem1 (gel, FIG. 3)” value [4] is reported as “Commercial SplB protease, lacking the fused spytag, was only able to produce minimal native Tem1”, the “cleavage of the fusion substrate to native OFP (gel, FIG. 5)” value [3] is reported as “Neither SplB-COM or Spl-CON was able to completely digest the fusion substrate” and the “cleavage of the fusion protein to native LSSmOrange (gel, FIG. 4)” value [5] is reported as “A similar experiment with LSSmOrange replacing Tem1 yielded the same result”.

B5: SplB protease with full-length ARVCF peptide tag at C-terminus (protein)
chain: ENNVTKVKDTNIFPYTGVVAFKSATGFVVGKNTILTNKHVSKNYKVGDRITAHPNSDKGNGGIYSIKKIINYPGKEDVSVIQVEERAIERGPKGFNFNDNVTPFKYAAGAKAGERIKVIGYPHPYKNKYVLYESTGPVMSVEGSSIVYSAHTESGNSGSPVLNSNNELVGIHFASDVKNDDNRNAYGVYFTPEIKKFIAENIDKPQPVDSWV
With B5 the “cleavage efficiency” value [3] was “At high protease concentration, no variation was observed in cleavage efficiency”, the “cleavage of the fusion substrate to native OFP (gel, FIG. 5)” value [3] was “this was notably more efficient for SplB-AP compared to SplB-COM and SplB fused to a control peptide that does not interact with ePDZ-b (SplB-CON)” and the “cleavage to yield native OFP” value [3] was “These tagged proteases all showed improved cleavage to yield native OFP (red arrow) compared to SplB protease tagged with a non-specific C-terminal peptide (SplB-CON) and commercial nontagged SplB protease (SplB-COM)”.

B6: HIS-SplB-ARVC-pep (protein)
chain: ENNVTKVKDTNIFPYTGVVAFKSATGFVVGKNTILTNKHVSKNYKVGDRITAHPNSDKGNGGIYSIKKIINYPGKEDVSVIQVEERAIERGPKGFNFNDNVTPFKYAAGAKAGERIKVIGYPHPYKNKYVLYESTGPVMSVEGSSIVYSAHTESGNSGSPVLNSNNELVGIHFASDVKNDDNRNAYGVYFTPEIKKFIAENIDKPQPVDSWV
For B6, the “on-column cleavage to native OFP (gel, FIG. 7)” value [6] was “Addition of 30 mM imidazole alleviated this constraint, resulting in improved cleavage efficiencies using histidine tagged ePDZ-b -WELQ-OFP and SplB-AP proteins”.

B7: TEV protease fused to the optimised 4-amino acid truncated ARVCF peptide (protein)
chain: GESLFKGPRDYNPISSTICHLTNESDGHTTSLYGIGFGPFIITNKHLFRRNNGTLLVQSLHGVFKVKNTTTLQQHLIDGRDMIIIRMPKDFPPFPQKLKFREPQREERICLVTTNFQTKSMSSMVSDTSCTFPSSDGIFWKHWIQTKDGQCGSPLVSTRDGFIVGIHSASNFTNTNNYFTSVPKNFMELLTNQEAQQWVSGWRLNADSVLWGGHKVFMSKPEEPFQPVKEATQLMNELVYSQDSWV
In the case of B7, the “cleavage of the fusion substrate to native OFP (gel, FIG. 6A)” value [1] is reported as “The results show clearly improved cleavage when TEV is fused to the optimised 4-amino acid truncated ARVCF peptide (TEV-AP4)”, the “generation of native OFP over time (gel, FIG. 6A)” value [1] is reported as “Native OFP (arrowed red) was rapidly generated through use of TEV-AP4 compared to endogenous TEV” and the “incubation time to near complete cleavage (gel, FIG. 6A)” value [1] is reported as “near completion around 2.5 hours”. For the same protein, the “incubation time to notable cleavage (gel, FIG. 6A)” value [1] was “Notable cleavage was observed after only 30 minutes incubation”.

B8: HIS-TEV-AP4 (protein)
chain: GESLFKGPRDYNPISSTICHLTNESDGHTTSLYGIGFGPFIITNKHLFRRNNGTLLVQSLHGVFKVKNTTTLQQHLIDGRDMIIIRMPKDFPPFPQKLKFREPQREERICLVTTNFQTKSMSSMVSDTSCTFPSSDGIFWKHWIQTKDGQCGSPLVSTRDGFIVGIHSASNFTNTNNYFTSVPKNFMELLTNQEAQQWVSGWRLNADSVLWGGHKVFMSKPEEPFQPVKEATQLMNELVYSQDSWV
With B8 the “yield of native OFP after on-column cleavage (gel, FIG. 8, lanes 6 and 15)” value [2] was “the yield of native OFP was significantly increased when histidine tagged TEV-AP4 was used compared to histidine tagged TEV”.

B9: SplB protease with ARVCF peptide truncated by 4 amino acids (DSWV) (protein)
chain: ENNVTKVKDTNIFPYTGVVAFKSATGFVVGKNTILTNKHVSKNYKVGDRITAHPNSDKGNGGIYSIKKIINYPGKEDVSVIQVEERAIERGPKGFNFNDNVTPFKYAAGAKAGERIKVIGYPHPYKNKYVLYESTGPVMSVEGSSIVYSAHTESGNSGSPVLNSNNELVGIHFASDVKNDDNRNAYGVYFTPEIKKFIAENIDKDSWV
With B9 the “cleavage activity at sub-stoichiometric protease (gel, FIG. 5, lanes 16, 18-19)” value [3] was “At sub-stoichiometric amounts, 3 and 4 amino acid truncations of the ARVCF peptide showed clear improvements in activity compared to full-length peptide”, the “cleavage efficiency” value [3] was “At high protease concentration, no variation was observed in cleavage efficiency” and the “cleavage to yield native OFP” value [3] was “These tagged proteases all showed improved cleavage to yield native OFP (red arrow) compared to SplB protease tagged with a non-specific C-terminal peptide (SplB-CON) and commercial nontagged SplB protease (SplB-COM)”.
